In patent US12129294B2, “Methods of treatment of diseases in which IL-13 activity is detrimental using anti-IL-13 antibodies” (AbbVie Inc., priority 2016, dated 2024):
Values joined by “and” are separate entries in the source; they are usually repeats but may differ in a detail not shown here. Equal values may be shown once.

Legend:
[1] = tested on: subjects with symptomatic eosinophilic esophagitis (EoE); assay: Phase 2 study in EoE patients: subject's global impression; format: in vivo, human; settings: therapy arm; week 16
Excerpt: (§1) Safety was monitored throughout the study. […] The study was powered for the primary endpoint.

human type IL-13 = human type IL-13 (Homo sapiens, UniProt P35225, Q144R); settings: see US patent pub. No. 2014/0341913; cited from earlier work
human type IL-13, sequence (P35225 15-146 Q144R limits assumed): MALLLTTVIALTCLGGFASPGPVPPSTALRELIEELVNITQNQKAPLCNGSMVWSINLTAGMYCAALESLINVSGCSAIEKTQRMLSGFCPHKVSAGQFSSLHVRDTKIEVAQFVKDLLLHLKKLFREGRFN

[2] = tested on: subjects with symptomatic eosinophilic esophagitis (EoE); assay: Phase 2 study in EoE patients: clinician's global assessment of disease severity; format: in vivo, human; settings: for clinician's global assessment of disease severity, Mean change / clinician's global assessment of disease severity, LSMD versus placebo: Change to Week 16; for clinician's global assessment of disease severity, LSMD versus placebo: ANCOVA
Excerpt: as §1

other cytokines = assay: Binding of the antibody to other cytokines
[3] = target: IL-13 sequence variant, R110Q (Homo sapiens, UniProt P35225); assay: Binding of the antibody to IL-13 variant
IL-13 sequence variant, R110Q, sequence (P35225 35-146, stated change not applied): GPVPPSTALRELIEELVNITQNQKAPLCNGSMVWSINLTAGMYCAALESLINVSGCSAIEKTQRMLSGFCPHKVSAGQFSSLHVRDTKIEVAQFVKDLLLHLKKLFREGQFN

[4] = tested on: subjects with symptomatic eosinophilic esophagitis (EoE); assay: Phase 2 study in EoE patients: dysphagia symptom composite diary score (daily symptom diary, DSD); format: in vivo, human; set-up: dysphagia symptom composite diary score, Mean change / dysphagia symptom composite diary score, Mean / dysphagia symptom composite diary score, Median: scale not given here; settings: for dysphagia symptom composite diary score, Mean change / dysphagia symptom composite diary score, LSMD versus placebo: Change to Week 16
Excerpt: Safety was monitored throughout the study. […] The study was powered for the primary endpoint. […]

B1: RPC4046: recombinant humanized, high-affinity, selective anti-IL-13 monoclonal antibody; heavy chain variable region SEQ ID NO: 2, light chain variable region SEQ ID NO: 3 (antibody, V domains shown)
VH: EVTLRESGPGLVKPTQTLTLTCTLYGFSLSTSDMGVDWIRQPPGKGLEWLAHIWWDDVKRYNPALKSRLTISKDTSKNQVVLKLTSVDPVDTATYYCARTVSSGYIYYAMDYWGQGTLVTVSS
VL: DIQMTQSPSSLSASVGDRVTISCRASQDIRNYLNWYQQKPGKAPKLLIFYTSKLHSGVPSRFSGSGSGTDYTLTISSLQPEDIATYYCQQGNTLPLTFGGGTKVEIK
[1]
  subjects responding as feeling a lot better or a little better compared to placebo: larger number of subjects
Human type IL-13
  binding affinity to helices A and D of interleukin 13 (IL-13): binds with great affinity
[2]; 180 mg, Baseline
  clinician's global assessment of disease severity, Mean: 6.7
  clinician's global assessment of disease severity, Median: 7.0
[2]; 180 mg
  clinician's global assessment of disease severity, Mean change: −3.6
  clinician's global assessment of disease severity, LSMD versus placebo: −1.7
[2]; 180 mg, Week 16
  clinician's global assessment of disease severity, Mean: 2.9
  clinician's global assessment of disease severity, Median: 2.0
[2]; 360 mg, Baseline
  clinician's global assessment of disease severity, Mean: 6.1
  clinician's global assessment of disease severity, Median: 6.0
[2]; 360 mg
  clinician's global assessment of disease severity, Mean change: −2.9
  clinician's global assessment of disease severity, LSMD versus placebo: −1.3
[2]; 360 mg, Week 16
  clinician's global assessment of disease severity, Mean: 3.2
  clinician's global assessment of disease severity, Median: 3.0
[2]; both the low and the high dose, week 16
  clinician's global assessment of disease severity at week 16: achieved statistical significance
Other cytokines
  binding to other cytokines: does not bind to other cytokines
[3]
  binding to IL-13 sequence variant, R110Q: binds
[4]; 180 mg, ITT, Baseline
  dysphagia symptom composite diary score, Mean: 27.63 and 27.6
  dysphagia symptom composite diary score, Median: 28.5
[4]; 180 mg, ITT
  dysphagia symptom composite diary score, Mean change: −5.3
[4]; 180 mg, ITT, ANCOVA
  dysphagia symptom composite diary score, LSMD versus placebo: 0.02
[4]; 180 mg, ITT, Week 16
  dysphagia symptom composite diary score, Mean: 21.9
  dysphagia symptom composite diary score, Median: 26.1
[4]; 180 mg, non-steroid-refractory pts
  dysphagia symptom composite diary score, Mean change: −10.0
[4]; 180 mg, non-steroid-refractory
  dysphagia symptom composite diary score, LSMD versus placebo: 0.93
[4]; 180 mg, steroid-refractory pts
  dysphagia symptom composite diary score, Mean change: −1.3
[4]; 180 mg, steroid-refractory
  dysphagia symptom composite diary score, LSMD versus placebo: −1.3
[4]; 360 mg, ITT, Baseline
  dysphagia symptom composite diary score, Mean: 29.03 and 29
  dysphagia symptom composite diary score, Median: 27.5
[4]; 360 mg, ITT
  dysphagia symptom composite diary score, Mean change: −13.3
[4]; 360 mg, ITT, ANCOVA
  dysphagia symptom composite diary score, LSMD versus placebo: −6.50
[4]; 360 mg, ITT, Week 16
  dysphagia symptom composite diary score, Mean: 15.3
  dysphagia symptom composite diary score, Median: 6.2
[4]; 360 mg, non-steroid-refractory pts
  dysphagia symptom composite diary score, Mean change: −14.0
[4]; 360 mg, non-steroid-refractory
  dysphagia symptom composite diary score, LSMD versus placebo: −3.1
[4]; 360 mg, steroid-refractory pts
  dysphagia symptom composite diary score, Mean change: −12.3
[4]; 360 mg, steroid-refractory
  dysphagia symptom composite diary score, LSMD versus placebo: −12.0
[4]; both low dose (180 mg) and high dose (360 mg)
  mean dysphagia symptom composite diary score at week 16 compared to the controls: reduction
[4]; subgroup analysis, 180 mg and 360 mg, week 16
  mean dysphagia symptom composite diary score in steroid-refractory subjects: dose-dependent reduction
[4]; subgroup analysis, over 16 weeks
  benefit on dysphagia composite diary score, steroid refractory versus non-steroid-refractory subgroup: steroid refractory sub-group benefited more
